In publication PMC11772769, “Selective cargo and membrane recognition by SNX17 regulates its interaction with Retriever” (EMBO Reports, 2024):
Positions count from the first letter of the chain named. Where no end group is shown, it is not given here. The star is where a group is joined. 5FAM = O=C1OC2(c3ccc(O)cc3Oc3cc(O)ccc32)c2ccc(C(=O)*)cc21

T1: MBP-SNX17 N459A + F462A (UniProt Q15036 1-470, N459A | F462A)
T1 construct: not shown: MBP, N-terminal, kept
T1 sequence (looked up): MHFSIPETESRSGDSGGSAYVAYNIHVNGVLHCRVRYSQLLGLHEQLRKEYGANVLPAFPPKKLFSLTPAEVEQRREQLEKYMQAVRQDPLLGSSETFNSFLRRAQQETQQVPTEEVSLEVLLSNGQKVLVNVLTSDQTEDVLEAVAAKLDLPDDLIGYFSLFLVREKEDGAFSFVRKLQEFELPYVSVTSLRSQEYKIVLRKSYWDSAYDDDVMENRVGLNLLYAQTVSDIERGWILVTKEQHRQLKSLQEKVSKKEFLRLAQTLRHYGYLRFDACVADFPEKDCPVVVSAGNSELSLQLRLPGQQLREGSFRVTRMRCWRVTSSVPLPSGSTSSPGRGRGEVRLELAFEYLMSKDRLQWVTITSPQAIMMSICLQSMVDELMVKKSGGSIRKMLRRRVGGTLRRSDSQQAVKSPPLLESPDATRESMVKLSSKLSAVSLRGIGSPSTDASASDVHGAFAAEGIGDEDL

T2: MBP-SNX17 L470G (UniProt Q15036 1-470, L470G)
T2 construct: not shown: MBP, N-terminal, kept
T2 sequence (looked up): T1 sequence (looked up) with A459N, A462F, L470G

T3: MBP-SNX17 (full-length, wild-type) (UniProt Q15036 1-470)
T3 construct: also called MBP-SNX17FL; WT; not shown: MBP, N-terminal, kept
T3 sequence (looked up): T1 sequence (looked up) with A459N, A462F

B1: MBP-SNX17 W321A (natural protein)
chain: T1 sequence (looked up) with W321A, A459N, A462F
notes: not shown: MBP, N-terminal, kept
B2: MBP-SNX17 V380D (natural protein)
chain: T1 sequence (looked up) with V380D, A459N, A462F
notes: as for B1
B3: MBP-SNX17 H457A (natural protein)
chain: T1 sequence (looked up) with H457A, A459N, A462F
notes: as for B1
B4: Peptide ITGB1_(P-14mer) (peptide)
peptide: 5FAM-KWDTGENPIYKSAV
notes: also called ITGB1 membrane-proximal site; source: synthetic peptide (GenScript)
B5: Peptide ITGB1_(D-13mer) (peptide)
peptide: 5FAM-AVTTVVNPKYEGK
notes: also called ITGB1 distal site; source: synthetic peptide (GenScript)
B6: GST-LRP1ICD (domain or fragment, UniProt Q07954 4444-4544, looked up)
chain: YKRRVQGAKGFQHQRMTNGAMNVEIGNPTYKMYEGGEPDDVGGLLDADFALDPDKPTNFTNPVYATLYMGGHGSRHSLASTDEKRELLGRGPEDEIGDPLA
notes: not shown: GST, N-terminal, kept
B7: SNX17_(FERM-CT) (amino acids 109-470) (domain or fragment)
chain: TQQVPTEEVSLEVLLSNGQKVLVNVLTSDQTEDVLEAVAAKLDLPDDLIGYFSLFLVREKEDGAFSFVRKLQEFELPYVSVTSLRSQEYKIVLRKSYWDSAYDDDVMENRVGLNLLYAQTVSDIERGWILVTKEQHRQLKSLQEKVSKKEFLRLAQTLRHYGYLRFDACVADFPEKDCPVVVSAGNSELSLQLRLPGQQLREGSFRVTRMRCWRVTSSVPLPSGSTSSPGRGRGEVRLELAFEYLMSKDRLQWVTITSPQAIMMSICLQSMVDELMVKKSGGSIRKMLRRRVGGTLRRSDSQQAVKSPPLLESPDATRESMVKLSSKLSAVSLRGIGSPSTDASASDVHGNFAFEGIGDEDL

Tests used:
Conditions in all cases: both partners purified
[1] = target: B7; test: fluorescence polarisation
Retriever complex [2] = target: T4, Retriever complex (UniProt O14972 1-297; Q9UBQ0 1-182; Q7Z3J2 1-963); test: pull-down
MBP-SNX17 N459A + F462A = target: T1, MBP-SNX17 N459A + F462A; test: fluorescence polarisation
MBP-SNX17 L470G = target: T2, MBP-SNX17 L470G; test: fluorescence polarisation
MBP-SNX17 H457A = target: B3; test: fluorescence polarisation
[3] = target: T3, MBP-SNX17 (full-length, wild-type); test: pull-down
Retriever complex [4] = target: T4, Retriever complex; test: pull-down; GST pull-down: GST-L2FBR on glutathione agarose, Retriever together with SNX17PX, SNX17 FERM-CT or MBP-SNX17FL; VPS35L band quantified; Coomassie

5FAM-QQNGYENPTYKFFE (source: synthetic peptide (GenScript)) [Peptide APP_(14mer)] was tested, and the Kd [1] was 19 µM.

B1: binds (Retriever complex [2]).

B2: binds (Retriever complex [2]).

B3: binds (Retriever complex [2]).

B4 was tested, and the Kd [1] was 72 µM.

5FAM-MNVEIGNPTYKMYE (source: synthetic peptide (GenScript)) [Peptide LRP1_(14mer)]: binds (MBP-SNX17 N459A + F462A); binds (MBP-SNX17 L470G); binds (MBP-SNX17 H457A). The Kd [1] was 2.2 µM.

5FAM-KLITYDNPAYEGID (source: synthetic peptide (GenScript)) [Peptide L2_(14mer)] was tested, and the binding result (MBP-SNX17 N459A + F462A) was “binds” and the Kd [1] was 0.6 µM.

With B5 the Kd [1] was 125 µM.

DPAFVTTPTKLITYDNPAYEGIDVDNTLYF (domain or fragment, not shown: GST, N-terminal, kept) [GST-L2FBR]: binds [3].

B6: binds [3].

B7: binds (Retriever complex [4]).
